According to US20090082262A1 (published 2009):
*: point of attachment. Nonanoyl = CCCCCCCCC(=O)*

T1: chemokine receptor 1 (CCR1) (UniProt P56482 1-355)
T1 chain: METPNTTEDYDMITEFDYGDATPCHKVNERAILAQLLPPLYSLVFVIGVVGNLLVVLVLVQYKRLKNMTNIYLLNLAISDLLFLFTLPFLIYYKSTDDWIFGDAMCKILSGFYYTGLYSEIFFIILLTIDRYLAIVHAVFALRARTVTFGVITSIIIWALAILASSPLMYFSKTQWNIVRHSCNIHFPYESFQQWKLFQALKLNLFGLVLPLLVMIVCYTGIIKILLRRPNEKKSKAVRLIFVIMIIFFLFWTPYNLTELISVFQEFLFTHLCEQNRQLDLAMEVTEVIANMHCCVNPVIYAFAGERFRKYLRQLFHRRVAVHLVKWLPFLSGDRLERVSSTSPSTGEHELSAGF

B1: RANTES (ligand)
chain: SPYSSDTTPCCFAYIARPLPRAHIKEYFYTSGKCSNPAVVFVTRKNRQVCANPEKKWVREYINSLEMS
B2: PHC-1 (HCC-1[9-74]) (ligand)
chain: GPYHPSECCFTYTTYKIPRQRIMDYYETNSQCSKPGIVFITKRGHSVCTNPSDKWVQDYIKDMKEN
B3: HCC-1[10-74] (ligand)
chain: PYHPSECCFTYTTYKIPRQRIMDYYETNSQCSKPGIVFITKRGHSVCTNPSDKWVQDYIKDMKEN
B4: HCC-1[11-74] (ligand)
chain: YHPSECCFTYTTYKIPRQRIMDYYETNSQCSKPGIVFITKRGHSVCTNPSDKWVQDYIKDMKEN
B5: NNY-HCC-1[10-74] (ligand)
chain: Nonanoyl-PYHPSECCFTYTTYKIPRQRIMDYYETNSQCSKPGIVFITKRGHSVCTNPSDKWVQDYIKDMKEN
modifications: ends and bridges not checked
B6: HCC-1[8-74] (ligand)
chain: RGPYHPSECCFTYTTYKIPRQRIMDYYETNSQCSKPGIVFITKRGHSVCTNPSDKWVQDYIKDMKEN
B7: HCC-1, residues 6-74 (ligand)
chain: SSRGPYHPSECCFTYTTYKIPRQRIMDYYETNSQCSKPGIVFITKRGHSVCTNPSDKWVQDYIKDMKEN
B8: HCC-1[12-74] (protein)
chain: HPSECCFTYTTYKIPRQRIMDYYETNSQCSKPGIVFITKRGHSVCTNPSDKWVQDYIKDMKEN
B9: HCC-1[7-74] (ligand)
chain: SRGPYHPSECCFTYTTYKIPRQRIMDYYETNSQCSKPGIVFITKRGHSVCTNPSDKWVQDYIKDMKEN

Target: T1, chemokine receptor 1 (CCR1)
Experiment: competition binding

Row | Binder | IC50 [nM]
1 | B1 | 0.166
2 | B2 | 0.104
3 | B3 | 0.182
4 | B4 | 5.07
5 | B5 | 0.0843
6 | B6 | 2.42
7 | B7 | 6.52
8 | B8 | 50.1
9 | B9 | 4.36
